Data as given in patent US11994512B2, “Single-cell genomic methods to generate ex vivo cell systems that recapitulate in vivo biology with improved fidelity” (Massachusetts Institute of Technology, priority 2018, dated 2024).

Test system: intracellular proteome of ENR+CD and ENR organoids
Assay: LC-MS/MS TMT proteomics of ENR+CD versus ENR organoids
Assay type: cell-based, C57BL/6 mice
Conditions: for Average logFC / M1-1 Log2 Median Normalized / M1-2 Log2 Median Normalized / M2-1 Log2 Median Normalized / M2-2 Log2 Median Normalized: protein abundance, ENR+CD versus ENR organoids; for Average logFC: aggregate of the four sample pairs; for M1-1 Log2 Median Normalized: replicate M1-1; for M1-1 Log2 Median Normalized / M1-2 Log2 Median Normalized / M2-1 Log2 Median Normalized / M2-2 Log2 Median Normalized: log2 ratio; for M1-2 Log2 Median Normalized: replicate M1-2; for M2-1 Log2 Median Normalized: replicate M2-1; for M2-2 Log2 Median Normalized: replicate M2-2; for change: up = enriched in ENR+CD, down = enriched in ENR, FDR<0.05 and log fold change cut-off
Description: Because PCs are highly secretory, protein-rich cells, Applicants sought to assess the total intracellular proteome between conditions through liquid chromatography mass spectrometry (LC-MS/MS)-based proteomics. Applicants quantified relative protein abundance across eight samples using isobaric mass tag labeling from four ENR and four ENR+CD samples (M1-1 through M2-2, first digit denotes biological donor, second digit denotes technical replicate) (FIG. 3A). Samples were processed and analyzed in a single 10-plex by LC-MS/MS (FIG. 9A).
To affirm the reproducibility of the associated proteins in the ENR+CD-enriched proteome, Applicants performed relative quantification within differentiation sets.
Mass spectrometry proteomics sample preparation, sequencing, and quantification. Organoid cell pellets were isolated from Matrigel with mechanical dissociation and washed (cold PBS 5X) to remove residual extracellular protein. Proteins were extracted from cell pellets with 8 M urea (Sigma), reduced with 5 mM DTT (Thermo Fisher Pierce) for 45 minutes, alkylated with 10 mM IAA (Sigma) for 45 minutes in the dark, and double digested with both Lysyl Endopeptidase “LysC” (Wako) and trypsin (Promega) overnight at RT. A small aliquot of cellular lysate was removed from each sample for protein quantification via the Pierce™ BCA Protein Assay Kit (Pierce). After proteolytic digestion, the samples were quenched using formic acid to a final concentration of 1.0% and subsequently desalted on 10 mg OASIS HLB solid phase columns (Waters).
The peptides were labeled with TMT-10 isobaric mass tag reagent according to manufacturer's instructions (ThermoFisher Scientific). The peptides were labeled at a 1:8 ratio of peptide to TMT reagent, followed by 1-hour incubation at RT with bench top shaking at 850 rpm. After incubation, a […] of labeled tryptic peptide was removed from each labeled condition, desalted with C18 stage tips, and analyzed via LC-MS/MS using a Thermo Fisher Q Exactive Plus Hybrid Mass Spectrometer (QE-Plus) coupled to a Thermo Fisher EASY-nLC 1000 liquid chromatograph to ensure isobaric label incorporation >95%. An additional 1.0 μg of labeled tryptic peptide was removed from each channel, mixed together, desalted on a C18 stage tip, and analyzed via LC-MS to ensure equal relative protein loads. During these quality control steps, the labeled peptides were stored, unquenched at −80° C.

Molecule | Average logFC | M1-1 Log2 Median Normalized | M1-2 Log2 Median Normalized | M2-1 Log2 Median Normalized | M2-2 Log2 Median Normalized | change
O09010 (protein, UniProt O09010 1-378, looked up, full-length) MLQRCGRRLLLALVGALLACLLVLTADPPPTPMPAERGRRALRSLAGSSGGAPASGSRAAVDPGVLTREVHSLSEYFSLLTRARRDADPPPGVASRQGDGHPRPPAEVLSPRDVFIAVKTTRKFHRARLDLLFETWISRHKEMTFIFTDGEDEALAKLTGNVVLTNCSSAHSRQALSCKMAVEYDRFIESGKKWFCHVDDDNYVNLRALLRLLASYPHTQDVYIGKPSLDRPIQATERISEHKVRPVHFWFATGGAGFCISRGLALKMGPWASGGHFMSTAERIRLPDDCTIGYIVEALLGVPLIRSGLFHSHLENLQQVPTTELHEQVTLSYGMFENKRNAVHIKGPFSVEADPSRFRSVHCHLYPDTPWCPRSAIF | 1.464 | 1.443 | 1.37 | 1.4835 | 1.56 | up
O35280 (protein, UniProt O35280 1-476, looked up, full-length) MAVPFVEDWDLVQTLGEGAYGEVQLAVNRITEEAVAVKIVDMKRAIDCPENIKKEICINKMLSHENVVKFYGHRREGHIQYLFLEYCSGGELFDRIEPDIGMPEQDAQRFFHQLMAGVVYLHGIGITHRDIKPENLLLDERDNLKISDFGLATVFRHNNRERLLNKMCGTLPYVAPELLKRKEFHAEPVDVWSCGIVLTAMLAGELPWDQPSDSCQEYSDWKEKKTYLNPWKKIDSAPLALLHKILVETPSARITIPDIKKDRWYNKPLNRGAKRPRATSGGMSESSSGFSKHIHSNLDFSPVNNGSSEETVKFSSSQPEPRTGLSLWDTGPSNVDKLVQGISFSQPTCPEHMLVNSQLLGTPGSSQNPWQRLVKRMTRFFTKLDADKSYQCLKETFEKLGYQWKKSCMNQVTVSTTDRRNNKLIFKINLVEMDEKILVDFRLSKGDGLEFKRHFLKIKGKLSDVVSSQKVWFPVT | −1.266 | −1.09 | −1.001 | −1.4995 | −1.475 | down
E9Q5C9 (protein, UniProt E9Q5C9 1-702, looked up, full-length) MADTGLRRVVPSDLYPLVLRFLRDSQLSEVASKFAKATGATQQDANASSLLDIYSFWLNRSTKAPKVKLQSNGPVTKKAKKETSSSDSSEDSSEDEDKKAQGLPTQKAAAQVKRASVPQHAGKAAAKASESSSSEESSEEEEEDKKKKPVQQKAAKPQAKAVRPPAKKAESSESDSDSDSDSSSEEETPQTQKPKAAVAAKAQTKAEAKPGTPAKAQPKVANGKAAASSSSSSSSDDSEEEKKAAAPPKKTVPKKQVVAKAPVKVAAAPTQKSSSSEDSSSEEEEGQRQPMKKKAGPYSSVPPPSVPLPKKSPGTQAPKKAAAQTQPADSSDDSSDDSDSSSEEEKKPPAKTVVSKTPAKAAPVKKKAESSSDSSDSDSSEDEAPAKPVSTTKSPKPAVTPKPSAAKAVTTPKQPAGSNQKPQSRKADSSSSEEESSSSEEEEASKKSATTPKAKVTAKAAPAKQAPQAAGDSSSDSDSSSSEEEEKTPKPPAKKKAAGGAVSTPAPGKKAEAKSSSSSSSSSSEDSSEEEKKKKPKATTPKIQASKANGTPASLNGKAAKESEEEEEEEETEEKKKAAGTKPGSGKKRKQNETADEATTPQAKKVKLETPNTFPKRKKGERRASSPFRRVREEEIEVDSRVADNSFDAKRGAAGDWGERANQVLKFTKGKSFRHEKTKKKRGSYRGGSISVQVNSVKFDSE | −1.884 | −1.968 | −1.821 | −1.5075 | −2.239 | down
O08529 (protein, UniProt O08529 1-700, looked up, full-length) MAGIAIKLAKDREAAEGLGSHERAIKYLNQDYETLRNECLEAGALFQDPSFPALPSSLGYKELGPYSSKTRGIEWKRPTEICADPQFIIGGATRTDICQGALGDCWLLAAIASLTLNEEILARVVPPDQSFQENYAGIFHFQFWQYGEWVEVVVDDRLPTKDGELLFVHSAEGSEFWSALLEKAYAKINGCYEALSGGATTEGFEDFTGGIAEWYELRKPPPNLFKIIQKALEKGSLLGCSIDITSAADSEAVTYQKLVKGHAYSVTGAEEVESSGSLQKLIRIRNPWGQVEWTGKWNDNCPSWNTVDPEVRANLTERQEDGEFWMSFSDFLRHYSRLEICNLTPDTLTCDSYKKWKLTKMDGNWRRGSTAGGCRNYPNTFWMNPQYLIKLEEEDEDEEDGERGCTFLVGLIQKHRRRQRKMGEDMHTIGFGIYEVPEELTGQTNIHLGKNFFLTTRARERSDTFINLREVLNRFKLPPGEYVLVPSTFEPHKDGDFCIRVFSEKKADYQAVDDEIEANIEEIDANEEDIDDGFRRLFVQLAGEDAEISAFELQTILRRVLAKRQDIKSDGFSIETCKIMVDMLDEDGSGKLGLKEFYILWTKIQKYQKIYREIDVDRSGTMNSYEMRKALEEAGFKLPCQLHQVIVARFADDELIIDFDNFVRCLVRLETLFKIFKQLDPENTGTIQLNLASWLSFSVL | 1.309 | 1.421 | 1.297 | 1.1725 | 1.347 | up
D3YUE4 (protein, UniProt D3YUE4 1-279, looked up, full-length) MAACAGGPGSWSENILKYFLRNNQITAEDGAEILWSHAANHKSQMNEALKSAAHMIEADVLLPSDGSEHGQPIMAHPPETSSDNTLQEWLAEVVKSNKGIKLDFKSLAAVRASMLFLDNMKQHLQRPVWINADILPGPNGSSKVVDAKAFLDTVTSFFPDVTFSLGWTTGWHPEKVNEGYSWSMVKEMDYICSELTQPVTFPVRAALVRQSCPQLLWLLTKSNRYSLTVWTGKDDIYSTEDLLYIRDYFNKTQVFYDISEPQNHEFKQAIGIRGHSLRI | −1.165 | −0.678 | −1.053 | −1.3175 | −1.611 | down
B9EJ86 (protein, UniProt B9EJ86 1-889, looked up, full-length) MEAALADGEPDRSSLLGDSKDVLGPSTVVANSDEPQHLTPGKMSQRQGRDANPTPTRDLPQPSLSPASLHSQGFERGKEDISQNKDDSSLSMSKSKSESKLYNGSEKDSSTSSKLTKKESLKVQKKNYREEKKRATKELLSTITDPSVIVMADWLKIRGTLKSWTKLWCVLKPGVLLIYKTQKNGQWVGTVLLNACEIIERPSKKDGFCFKLFHPLEQSIWAVKGPKGEAVGSITQPLPSSYLIIRATSESDGRCWMDALELALKCSSLLKRTMVREGKEHDLSISSDSTHVTLYGLLRANNLHSGDNFQLNDSEIERQHFKDQDLYSDKSDKENDPEHDESDNEVLGKSEESDTDTSERQDDSYIDPEPVEPLKETTYMEQSHEELGEAGEASQTETVSEENKSLIWTLLKQVRPGMDLSRVVLPTFILEPRSFLDKLSDYYYHADFLSEAALEENPYFRLKKVVKWYLSGFYKKPKGLKKPYNPILGETFRCLWIHPRTNSKTFYIAEQVSHHPPISAFYVSNRKDGFCLSGSILAKSKFYGNSLSAILEGEARLTFLNRGEDYVMTMPYAHCKGILYGTMTLELGGTVNITCQKTGYSAILEFKLKPFLGSSDYVNQISGKLKLGKEVLATLEGHWDSEVFINDKKTDNSEIFWNPTPDIKQWRLIRHTVKFEEQDDFESEKLWQRVTKAINAKDQTEATQEKYVLEEAQRQAARDRKTKTQEWVCKLFELDPLTGEWHYKFSDTRPWDPLNDMIQFEKDGVIQTKVKHRTPMVSVPKMKHKPTRQQKKVVKGYSSPEPDIQDSSGSEAQSVKPSTRRKKGIDLGDIQSSIESIKQTQEEIKRNIMALRNHLLSSTPATDYFLQQKDYFVIFLLILLQVIINFIFK | 1.24 | 1.242 | 1.864 | 1.0905 | 0.802 | up
O09037 (protein, UniProt O09037 1-175, looked up, full-length) MLPHLVLNSISWMLLSCLLFVFQVQGEDFQKEVPSPRTSCPMGYKAYRSHCYALVMTPKSWFQADLVCQKRPSGHLVSILSGGEASFVSSLVNGRVDNYQDIWIGLHDPTMGQQPNGGGWEWSNSDVLNYLNWDGDPSSTVNRGHCGSLTASSGFLKWGDYYCDGTLPFVCKFKQ | −1.611 | −1.64 | −2.141 | −1.5875 | −1.077 | down
